From article PMC6425953 (Cell reports, 2019) come the findings set out here.

Sequences and labels used below:
B1: GST-Rng10(751–1,038) (domain or fragment)
chain: SNSKAPAIEETTTTKVEVVAAHDAVSISSNSSTHKSHSEPLNRDELEVAALSRGSLPEPPKPNKQIVVQEEDQRDTLSLKTSTTGLSSHSKSAENNSTQQSTTSPSINSGASADAVSSGISKKADNSETNLNYFATLDAFVKSPLMSFDGLGELGSTDQRYNFFNQKIQEYSAYDSGLDNWIQFCLEKDGEAPKEAPPPPRSEPVSTTTKLAKRITQPSLSPARSTVTITHNIATEAKKKSKSAANDILHLFKKKAKSEQSNAKSSSSSIKESKKMKTLFGKKLGFKS
B2: His6-Rga7(1–320) (domain or fragment)
chain: MLSAPSSSTTPASPPTSPPNTTSSDDFAVLKEPKVEAILNSELGLAILNDRIKDYLLTCKELAGFFKKRSILEEESGKNLQKLAKSYLETFQSKHHSPQSFSASVITSMEIHEQLANHSLTLQKTLSAFSDQVIEFHKNAERKRKSIKEYAKKQENAYLEAVMQMDKSKSRFKGAETEYNRALDNKNTGDSQKKVGFFKPKSNAQLTKLEDEARLKAENAESDMHSKIENAQNVQKQLLCIHRPNYIKQFFSLQREIESSLIANYLRYTKLCESNTLLNGLTIRPQKPTPTNCGLQHALDNINANTDFVQYVLHASIKHE
B3: GST-Rng10(751–950) (domain or fragment)
chain: SNSKAPAIEETTTTKVEVVAAHDAVSISSNSSTHKSHSEPLNRDELEVAALSRGSLPEPPKPNKQIVVQEEDQRDTLSLKTSTTGLSSHSKSAENNSTQQSTTSPSINSGASADAVSSGISKKADNSETNLNYFATLDAFVKSPLMSFDGLGELGSTDQRYNFFNQKIQEYSAYDSGLDNWIQFCLEKDGEAPKEAPPPP

The data set “His6-Rga7(1–320)” has as its target B2. Kind of data set: supernatant depletion assay.
The data set “AUC” concerns the molecule itself. Kind of data set: AUC.

As a reminder, the Kd is the free concentration of one partner at which half of the binding sites on the other are occupied at equilibrium, for simple one-to-one binding. Take B1: the dissociation constant Kd with His6-Rga7(1–320) amounted to 430 nM.
A word on the stoichiometry N: it is a count of units in the complex or per binding partner. Consider B2, for which the “stoichiometry N” value in “AUC” stood at 2.
Molecule B3 came in with a dissociation constant Kd with His6-Rga7(1–320) of 690 nM.
